Data on four molecules can be found in US20210277110A1 (Janssen / Centocor, published 2021).

Where a chain is given by its changes, count along the chain named. Like-named read-outs stand apart in the source and are kept apart here.

In test [1] the target is T1, Full length human PD1 (huPD1) on cells (human, UniProt Q15116 25-288).
T1 construct: on T cells of human donors in the MLR and CMV assays (functional); also called PD-1 on Jurkat cells
Kind of test: flow cytometry, PHA-stimulated Jurkat cells. A general note: In flow cytometry, cells or beads pass a laser one at a time.
Procedure: (§1) Jurkat cells were stimulated overnight with 20 ng/ml of PHA, harvested, washed, and checked for viability. The cells were then incubated at 6-10° C. for 45-60 minutes with various concentrations of test antibodies, washed and incubated at 6-10° C. for 45-60 minutes with FITC-labeled goat anti-human IgG. The cells were washed and fixed with BD Cytofix, refrigerated overnight and analyzed on a MACSQuant flow cytometer. The percentage of PD-1 positive cells at each antibody concentration was plotted vs log of the antibody concentration and EC₅₀ values were generated in Prism.

Test [2] deals with T2, Extracellular domain of human PD1 (huPD1-ECD) (human, UniProt Q15116 25-169, biotinylated in the ligand inhibition assay (sites not given)).
T2 construct: Expressed with a hexahistidine tag or as Fc fusion; also called biotinylated PD-1
Kind of test: SPR ProteOn, captured mAb; antigen species not given.

Test [3] concerns the target T2, Extracellular domain of human PD1 …. Briefly: MSD ligand inhibition, competitor coated huPDL1-ECD.
Procedure: (§2) The ligand inhibition assay design was MSD (Mescoscale Discovery) based. A MSD plate was directly coated with ligand (cynoPDL1-ECD, huPDL1-ECD or huPDL2-ECD) and incubated overnight at 4° C. The following day, the coating solution was removed and the plate was blocked. […] Depending on the panel of antibodies to be tested, the antibodies were tested as titrations or at a fixed concentration.
For test [4] the target is unchanged. Kind of test: SPR ProteOn, huPD1-ECD; RANGE low replicate.
Procedure: (§3) Affinity measurements using Surface Plasmon Resonance (SPR) were performed using a ProteOn XPR36 system. A biosensor surface was prepared by coupling a mixture of anti-IgG Fc modified alginate polymer layer surface of a GLC chip using the manufacturer instructions for amine-coupling chemistry. […] The collected data were processed and fitted to a Langmuir 1:1 binding model. The result for each mAb was reported in the format of kₒₙ (On-rate), koff (Off-rate) and KD (equilibrium dissociation constant).
(§4) STDEV were calculated for 3 or more replicates generated for human and cyno proteins. If less than 3 replicates were calculated, RANGE is indicated. RANGE is defined as the low and high values for the replicates tested. For samples without RANGE or STDEV, only one experiment was performed
For test [5] the target is unchanged. Briefly: SPR ProteOn, huPD1-ECD; RANGE high replicate; RANGE high replicate.
Procedure: as §3, §4
Test [6] addresses T1, Full length human PD1 (huPD1) on cells. Kind of test: flow cytometry, PHA-stimulated Jurkat cells. This is another data set of the same source.
Procedure: as §1
Test [7] deals with T2, Extracellular domain of human PD1 …. Kind of test: SPR ProteOn, captured mAb, huPD1-ECD analyte.
Procedure: as §3, §4
For test [8] the target is unchanged. Briefly: MSD ligand inhibition, competitor coated cynoPDL1-ECD.
Procedure: as §2
Test [9] has as its target T3, Extracellular domain of cyno PD1 (cPD1-ECD) (Macaca fascicularis (cynomolgus)).
T3 construct: Expressed with a hexahistidine tag or as Fc fusion; also called cynoPD1-ECD; cynoPD-1-ECD
T3 chain: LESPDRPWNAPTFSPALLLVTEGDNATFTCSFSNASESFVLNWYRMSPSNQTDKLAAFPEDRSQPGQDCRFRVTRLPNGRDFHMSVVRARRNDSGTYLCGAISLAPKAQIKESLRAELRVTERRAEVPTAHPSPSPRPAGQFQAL
Briefly: SPR ProteOn, cynoPD1-ECD; RANGE high replicate.
Procedure: as §3, §4

Test [10] has as its target T2, Extracellular domain of human PD1 …. Kind of test: MSD ligand inhibition, competitor coated cynoPDL1-ECD. The source holds these as a separate data set.
Test [11] concerns the target T3, Extracellular domain of cyno PD1 …. Kind of test: SPR ProteOn, captured mAb, cynoPD1-ECD analyte.
In test [12] the target is T2, Extracellular domain of human PD1 …. Kind of test: SPR ProteOn, huPD1-ECD; RANGE low replicate; RANGE low replicate.
Procedure: as §3, §4
Test [13] has the same target. Kind of test: SPR ProteOn, huPD1-ECD; RANGE high replicate.
Procedure: as §3, §4
Test [14] has the same target. Kind of test: SPR ProteOn, captured mAb, huPD1-ECD analyte. This is another data set of the same source.
Test [15] addresses T3, Extracellular domain of cyno PD1 …. Briefly: SPR ProteOn, captured mAb, cynoPD1-ECD analyte.
Procedure: as §3, §4
Test [16] concerns the target T2, Extracellular domain of human PD1 …. Kind of test: MSD ligand inhibition, competitor coated huPDL2-ECD.
Procedure: as §2
Test [17] has as its target T3, Extracellular domain of cyno PD1 …. Briefly: SPR ProteOn, cynoPD1-ECD; RANGE low replicate.
Test [18] shares this target. Briefly: SPR ProteOn, cynoPD1-ECD; RANGE high replicate.
Procedure: as §3
STDEV were calculated for 3 or more replicates generated for human and cyno proteins. If less than 3 replicates were calculated, RANGE was indicated. RANGE is defined as the low and high values for the replicates tested. For samples in the Table 10 or Table 11 without value indicated in RANGE or STDEV, only one experiment was performed.
The target is the same in test [19]. Briefly: SPR ProteOn, cynoPD1-ECD; RANGE low replicate.
Procedure: as §3, §4
Test [20] shares this target. Briefly: SPR ProteOn, cynoPD1-ECD; RANGE low replicate; RANGE low replicate.
Procedure: as §3, §4
Test [21] shares this target. Kind of test: SPR ProteOn, cynoPD1-ECD; RANGE high replicate; RANGE high replicate.
Procedure: as §3, §4
Test [22] shares this target. The description is as above.
In test [23] the target is T2, Extracellular domain of human PD1 …. Kind of test: SPR ProteOn, captured mAb, huPD1-ECD analyte; approximation (chi2 > 20%).
Procedure: as §3
STDEV were calculated for 3 or more replicates generated for human and cyno proteins. If less than 3 replicates were calculated, RANGE was indicated. RANGE is defined as the low and high values for the replicates tested.
Test [24] shares this target. Kind of test: SPR ProteOn, comparison with PD1B114.
Test [25] deals with T3, Extracellular domain of cyno PD1 …. Kind of test: SPR ProteOn, comparison with PD1B114.
Test [26] has as its target T2, Extracellular domain of human PD1 …. Kind of test: MSD ligand inhibition, competitor coated huPDL1-ECD. This is another data set of the same source.
Procedure: as §2
Test [27] concerns the target T1, Full length human PD1 (huPD1) on cells. Kind of test: flow cytometry, Jurkat cells.
Procedure: as §1
The target of test [28] is T2, Extracellular domain of human PD1 …. Briefly: MSD ligand inhibition, competitor coated cynoPDL1-ECD. The source holds these as a separate data set.
Procedure: as §2
For test [29] the target is unchanged. Briefly: SPR, human PD-1 affinity. For orientation: SPR reads the build-up and loss of mass on a sensor chip optically.
Procedure: as §3
The target in test [30] is T1, Full length human PD1 (huPD1) on cells. Kind of test: cell-based or functional assay.

T1 sequence (Q15116 25-288 limits assumed): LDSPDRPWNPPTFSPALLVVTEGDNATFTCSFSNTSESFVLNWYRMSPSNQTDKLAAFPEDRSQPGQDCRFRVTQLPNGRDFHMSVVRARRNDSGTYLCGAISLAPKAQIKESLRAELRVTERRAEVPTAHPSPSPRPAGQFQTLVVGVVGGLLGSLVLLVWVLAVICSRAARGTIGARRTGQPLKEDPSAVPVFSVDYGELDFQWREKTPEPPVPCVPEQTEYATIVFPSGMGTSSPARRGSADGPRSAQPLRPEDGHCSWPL
T2 sequence (Q15116 25-169 limits assumed): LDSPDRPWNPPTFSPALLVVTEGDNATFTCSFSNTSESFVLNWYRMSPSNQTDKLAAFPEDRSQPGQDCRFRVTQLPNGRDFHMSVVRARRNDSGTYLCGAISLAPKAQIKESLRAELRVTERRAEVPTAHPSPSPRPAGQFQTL

B1: PD1B70 (antibody, V domains shown)
VH: QVQLVQSGAEVKKPGSSVKVSCKASGGTFSSYAISWVRQAPGQGLEWMGGIIPIFGTANYAQKFQGRVTITADESTSTAYMELSSLRSEDTAVYYCARGYVRATGMLDYWGQGTLVTVSS
VL: EIVLTQSPATLSLSPGERATLSCRASQSVSSYLAWYQQKPGQAPRLLIYDASNRATGIPARFSGSGSGTDFTLTISSLEPEDFAVYYCQQRSNWPLTFGQGTKVEIK
notes: Tested as IgG2sigma/kappa; also called PD1H107/PH9L3
For orientation: EC50 means the concentration giving half of the maximal effect. Low readings indicate higher potency in that assay, high ones lower potency in that assay. One may read the Kd as the equilibrium constant for the complex coming apart. The low end stands for higher affinity, the high end for lower affinity. Broadly, the koff is a measure of how fast the partners let go of each other. One may read the kon as the rate constant with which the complex forms. Read a low kon as slower complex formation. The IC50 is the concentration that inhibits the measured activity by half. The low end stands for greater potency, the high end for weaker potency. On to B1, for which the EC50 was 0.69 to 1.32 µg/mL in test [1] and 0.69 µg/mL in test [6]. In addition, the Kd in [2] is 166 nM; in [5], 48.3 nM; in [7], 45.4 nM; in test [9], 100 nM; in test [11] it was 123 nM; in test [12] it was 42.6 nM. Also, the Kd in test [14] is 101 nM; in test [15], 89 nM; in [17] it was 109 nM; in test [18], 138 nM; in test [19] it was 79.6 nM. The koff stood at 0.0304 s⁻¹ in test [2]; 0.0341 s⁻¹ in [4]; 0.0349 s⁻¹ in test [7]; 0.0226 s⁻¹ in test [9]; 0.0258 s⁻¹ in [11]; 0.0356 s⁻¹ in test [13]. Further, the koff in [14] is 0.0418 s⁻¹; in test [15], 0.0222 s⁻¹; in test [17], 0.0245 s⁻¹; in test [18], 0.0275 s⁻¹; in test [19], 0.0218 s⁻¹. Further, the kon worked out at 184000 M⁻¹ s⁻¹ in test [2]; 737000 M⁻¹ s⁻¹ in [4]; 769000 M⁻¹ s⁻¹ in [7]; 274000 M⁻¹ s⁻¹ in test [9]; 210000 M⁻¹ s⁻¹ in [11]; 800000 M⁻¹ s⁻¹ in test [13]. For the same molecule, the kon in test [14] came to 415000 M⁻¹ s⁻¹; in test [15] it was 250000 M⁻¹ s⁻¹; in test [17] it was 199000 M⁻¹ s⁻¹; in test [18] it was 225000 M⁻¹ s⁻¹; in test [19] it was 225000 M⁻¹ s⁻¹. Also, the results for the IC50 in test [3], in test [8] and in [16] were 0.04 µg/mL, 0.01 to 0.021 µg/mL and 0.059 µg/mL, respectively. Besides, the “percentage ligand not blocked at 1 µg/ml” value in test [10] was 6%. Besides, the “percentage ligand not blocked at 10 µg/ml” value in test [10] came to 6%.

B2: PD1B11 (antibody, V domains shown)
VH: QVQLVQSGAEVKKPGSSVKVSCKASGGTFSSYAISWVRQAPGQGLEWMGGIIPIFGTANYAQKFQGRVTITADESTSTAYMELSSLRSEDTAVYYCARPGLAAAYDTGSLDYWGQGTLVTVSS
VL: B1 VL
notes: Tested as IgG2sigma/kappa; also called PD1H3/PH9L3
For B2, the results for the EC50 in [1] and in [6] were 0.03 to 0.24 µg/mL and 0.05 µg/mL, respectively. In addition, the Kd is 19.2 nM in test [2]; 9.6 nM in test [4]; 9.7 nM in test [7]; 27.1 nM in [9]; 31.3 nM in test [11]; 9.81 nM in test [13]. Moreover, the Kd was 26.9 nM in [15]; approximately 17 nM in [23]; 27.7 nM in test [17]; 35.1 nM in [18]; 26.8 nM in [19]. Further, the koff was determined as 0.00896 s⁻¹ in test [2]; 0.00943 s⁻¹ in test [5]; 0.00905 s⁻¹ in test [7]; 0.00917 s⁻¹ in test [11]; 0.00938 s⁻¹ in [20]; 0.00867 s⁻¹ in [12]. The koff in [14] was determined as 0.00852 s⁻¹; in test [21] it was 0.00946 s⁻¹; in test [15], 0.00942 s⁻¹; in test [22] it was 0.01 s⁻¹; in test [17] it was 0.008 s⁻¹. Further, the on-rate (kon) stood at 468000 M⁻¹ s⁻¹ in test [2]; 884000 M⁻¹ s⁻¹ in test [4]; 982000 M⁻¹ s⁻¹ in test [5]; 933000 M⁻¹ s⁻¹ in test [7]; 350000 M⁻¹ s⁻¹ in test [9]; 293000 M⁻¹ s⁻¹ in test [11]. For the same molecule, the kon amounted to 516000 M⁻¹ s⁻¹ in test [14]; 350000 M⁻¹ s⁻¹ in [15]; 301000 M⁻¹ s⁻¹ in [22]; 285000 M⁻¹ s⁻¹ in test [17]; 349000 M⁻¹ s⁻¹ in test [19]. In addition, the IC50 in [3] is 0.019 µg/mL; in [8], 0.017 to 0.018 µg/mL; in test [16], 0.029 µg/mL. Moreover, the “percentage ligand not blocked at 1 µg/ml” value in [10] came to 5%. For the same molecule, in [10], the “percentage ligand not blocked at 10 µg/ml” value was found to be 5%. For the same molecule, the “fold tighter affinity compared to PD1B114” value in test [24] is approximately 3 fold; in test [25] it was approximately 2 fold.

B3: PD1B131 (antibody, V domains shown)
VH: EVQLVESGGGLVQPGGSLRLSCAASGFAFSRYDMSWIRLAPGKGLESVAYISGGGANTYYLDNVKGRFTISRDNAKNSLYLQMNSLRAEDTAVYYCASPYLSYFDVWGQGTLVTVSS
VL: EIVMTQSPATLSVSPGERATLSCRASQSLSDYLHWYQQKPGQAPRLLIKSASQSISGIPARFSGSGSGTEFTLTISSLQSEDFAVYYCQNGHSFPYTFGQGTKLEIK
notes: Humanized variant of PD1B28; also called PD1H130/PD1L62
The molecule B3 registered an IC50 in test [26] of 0.079 µg/mL. Besides, the “Jurkat cell binding relative to PD1B28” value in test [27] worked out at 100%. The molecule further displayed an IC50 in [28] of 0.096 µg/mL. In [29], this molecule displayed a Kd of 0.127 nM, a koff of 0.000105 s⁻¹ and a kon of 827000 M⁻¹ s⁻¹.

B4: PD1B132 (antibody, IgG2, V domains shown)
VH: B3 VH with I37V, L39Q
VL: B3 VL
notes: Humanized variant of PD1B28; also called PD1H129/PD1L62
B4 had an IC50 in [26] of 0.055 µg/mL. In addition, in test [30], the “CMV EC50, nM (IFN-γ induction)” value worked out at 0.07 nM. In addition, the “Jurkat cell binding relative to PD1B28” value in test [27] was 100%. The IC50 in test [28] is 0.079 µg/mL. Also, in test [29], binding was put at a Kd of 0.096 nM, the koff amounted to 8.8e-05 s⁻¹ and the kon is 914000 M⁻¹ s⁻¹.
